Measured values published in patent US20030216321A1 (REGENTS OF THE UNIVERSITY OF MICHIGAN, published 2003).
Ends that are not written are not given here.

Columns and labels:
[1] = molecular target: T1, recombinant active wild-type PAI-1 (plasminogen activator inhibitor type 1) (human, UniProt P05121 24-402); experiment: 6.4 µM active PAI-1 with 200 µM peptide; thermodenaturation, mass spectra, SDS-PAGE
T1 construct: Serpin; Bacterially expressed human PAI-1 (Molecular Innovations), active conformation (>95%); also called wtPAI-1; active PAI-1
Text: The free peptide was then removed by chromatography on Heparin Sepharose.

PAI-1:uPA complex = molecular target: T2, PAI-1:uPA complex (human, UniProt P00749 21-431); experiment: solid phase assay on nVn-coated plates, anti-PAI-1 detection (FIG. 27)
T2 construct: also called uPA-PAI-1 complex; UPA-PAI-1

PAI-1:tPA complex = molecular target: T3, PAI-1:tPA complex (human, UniProt P00750 36-562); experiment: as above
T3 construct: also called tPA-PAI-1 complex

[2] = molecular target: T4, non-covalent PAI-1-anhydrotrypsin complex (human; bovine, UniProt P00760 24-246, anhydrotrypsin (chemically modified active site; the residue is not given)); experiment: solid phase assay on nVn-coated plates with 1 µM anhydrotrypsin in all wells (FIG. 28)
T4 construct: Formed in the well: 1 µM anhydrotrypsin present during the PAI-1 incubation step; also called PAI-1 in association with anhydrotrypsin
Method: Briefly, Vn at 1 µg/ml in phosphate buffered saline (PBS), was coated overnight onto Immulon 2 (Dynatech) rmicrotiter plates in a volume of 100 μl at 4° C., and all subsequent steps were performed at room temperature. The plates were washed with PBS followed by dH₂O, allowed to air dry for 15 min., and then blocked with 200 μl of 3% bovine serum albumin in PBS for 30 minutes.

[3] = molecular target: T1, recombinant active wild-type PAI-1 …; experiment: competitive inhibition of active PAI-1 binding to immobilized nVn by solution-phase Vn, ELISA
Method: IC₅₀ values for the inhibition by solution-phase Vn were calculated using a four parameter logistic fit from the GraFit program (Erithacus Software). […] The latter was calculated based on the fit of binding data in the absence of competitor Vn (FIG. 37) by equation 1.

B1: synthetic RCL peptide Ac-Thr-Val-Ala-Ser-Ser-Ser-Thr-Ala (PAI-1 P14 to P7) (peptide)
peptide: Ac-TVASSSTA
notes: also called eight residue synthetic peptide
binding result [1]: binds

B2: native human vitronectin (ligand, UniProt P04004 20-478, looked up)
chain: DQESCKGRCTEGFNVDKKCQCDELCSYYQSCCTDYTAECKPQVTRGDVFTMPEDEYTVYDDGEEKNNATVHEQVGGPSLTSDLQAQSKGNPEQTPVLKPEEEAPAPEVGASKPEGIDSRPETLHPGRPQPPAEEELCSGKPFDAFTDLKNGSLFAFRGQYCYELDEKAVRPGYPKLIRDVWGIEGPIDAAFTRINCQGKTYLFKGSQYWRFEDGVLDPDYPRNISDGFDGIPDNVDAALALPAHSYSGRERVYFFKGKQYWEYQFQHQPSQEECEGSSLSAVFEHFAMMQRDSWEDIFELLFWGRTSAGTRQPQFISRDWHGVPGQVDAAMAGRIYISGMAPRPSLAKKQRFRHRNRKGYRSQRGHSRGRNQNSRRPSRATWLSLFSSEESNLGANNYDDYRMDWLVPATCEPIQSVFFFSGDKYYRVNLRTRRVDTVDPPYPRSIAQYWLGCPAPGHL
notes: Predominantly monomeric; also called nVn; native Vn
Kd (PAI-1:uPA complex): > 100 nM
Kd (PAI-1:tPA complex): > 100 nM
binding result [2]: binds

B3: urea denatured human vitronectin (conformationally altered) (ligand, UniProt P04004 20-478, looked up)
chain: B2 chain
notes: also called dVn; uVn
fold difference of IC50 against solution-phase nVn [3]: ~6 fold
